Experimental data published in publication PMC4990970 (Scientific Reports, 2016).

Experiments:
Calmodulin (CaM) [1] = target: T1, Calmodulin (CaM) (UniProt P0DP23 1-149); assay: ITC; iTC200, room temperature, 20 mM Tris-HCl pH 7.5, 500 mM NaCl, 10 mM CaCl2 (holo-CaM, presence of calcium); 0.05-0.1 mM in the cell, 0.5-1.0 mM in the syringe; settings: both partners purified
T1 construct: Calmodulin, full length; apo-CaM (5 mM EGTA) and holo-CaM (10 mM CaCl2) are the same protein; the assays tell them apart; Se-Met-substituted apo-CaM was used for anomalous signals in the structure determination; also called apo-CaM; Ca2+-free CaM; source: Escherichia coli, purified using chromatography techniques

Calmodulin (CaM) [2] = target: T1, Calmodulin (CaM); assay: ITC; iTC200, room temperature, 20 mM Tris-HCl pH 7.5, 500 mM NaCl, 5 mM EGTA (apo-CaM, absence of calcium); 0.05-0.1 mM in the cell, 0.5-1.0 mM in the syringe; settings: both partners purified

Kd (Calmodulin (CaM) [1]): 7.14 µM
Kd (Calmodulin (CaM) [2]): 1.16 mM
B1: AtBAG5-IQR (AtBAG5-long with Ile57, Gln58 and Arg62 substituted with alanine) (domain or fragment)
chain: NATAAAARAASGYASYRIRNLYKKISSINREANRVQSIIQRQETVDAIRSDEKERLRMNETLMALLLKLDSVPGLDPTIREARRKVSRKIVGMQEILDSISETKD
notes: AtBAG5, Arabidopsis thaliana, residues 49-153 (AtBAG5-long) with three conserved residues of the IQ motif changed to alanine; also called IQ motif mutant; AtBAG5-IQR mutant; source: Escherichia coli, purified using chromatography techniques
